Data from the nanobody polyreactivity screen of Harvey et al. (2022).

Test: yeast display, Sf9 membrane polyspecificity reagent, FACS + sequencing; frameworks hold sequencing errors
Outline: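 Nanobodies came from a synthetic yeast display library in Saccharomyces cerevisiae BJ5465, induced with galactose for 36–48 hours and stained for 1 hour at 4 °C with 10% biotinylated, detergent-solubilized Sf9 membrane reagent. Cells were enriched on streptavidin microbeads and then FACS-sorted, with low and high (top ~1%) gates set on anti-HA fluorescence for expression and streptavidin fluorescence for reagent binding. Each polyreactivity label reflects the gate a clone came from. Genes were amplified by colony PCR, sequenced by MiSeq 2 × 250 and filtered by CDR length.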

Row | Sequence | polyreactivity (PSR sort gate)
1 | QVQLVESGGRLVQAGGSLRLSCDASGRTFYTNAMGWYRQEPGKEMELVAAISGRGSTYYADSVTGRFTISRDNAKNTVYLQMNSLKPEDTAVYYCAALLPGRSSSDYWGQGTQVTVSS | high polyreactivity
2 | QVQHVESGGGLVQAGGSLRLSCAASGFTFWRYAMGWYRQEPGKERELVAGISSGGSTNYADSVKGRFTISRDNAKNTVYLQMNSLKPEDTAVYYCAADNSVGSYDYWGQGSQVTVSS | low polyreactivity
3 | QVQLVESGGGLVQAGGSLRLSCAASGIIFPPYAMGWYRQAPWKEREFVAGITSSGGTYYADSVKGRFTISRDNAKNTVYLQMNSLKPEDTAVYYCAARQGNLRRGVRWFNYWGQGTQVTVSS | high polyreactivity
4 | QVQLVESGGGVDQAGGSLRLSCAASGLSLRVNVMGWYRPAPGKERELVAAISGGGRTYYADSVKGRFTISRDNAKNTVYLQMNSLKPEDTAVYYCATVRRRLSLTYDYWGQGTQVTVSS | high polyreactivity
5 | QVQLVESGGGLVQAGGSLRLSCAASGRIFDRNAMGWYRQAPGKERELVAAITRSGGRPYYADSVKGRFTISRDNAKNTVYLQMNSLKPEDTAVYYCNRGYPRSVVHYNSWGQGTQVTVSS | high polyreactivity
6 | QVQLVESGGGLVQAGGSLRLSCAASGSILYPNAMGWYRQAPGKERELVAAISTSGGSTYYADSVKGRFTLSRDNAKNTVYLQMNSLKPEDTAVYYCAKGWIYYSTWISEYWGQGTQVTVSS | low polyreactivity
7 | QVHLVESGGGLVQAGVSLRLSCAASGSTFGHNAMVWYRQAPGKERELVAAISSIGGSTNYADSVKGRFTISRDNAKNTVYFQMNSLKPEDTAVYYCNAGPGLRYVSPYDYWGQGTQVTVSS | low polyreactivity
8 | QVQLEESGGGLVQAGGSLRLSCAASGFILEYYAMGWSRQATGKETELVSTISSGGSTNYADSVKGRFTISSDNAKNTVYFQMNRLKPEDTAVFYCAAARYTLSRYYYWGQGTQLTVSS | high polyreactivity
9 | QVQLQESGGGLVQAGGSLRLSCAASGSIFYVYGMGWYRLAPGKVRELVAGINAGTNTNYADSVRGRFTISRDNAKNTVHLQMTSLNPEETAVYYCAADGNGYQAHEYWGQGTQVTVSS | high polyreactivity
10 | QVQLVESGGGLVQAGGSLRLSCAASGFTFSRNTMGWYRQAPGKEREFVAGIRRSGSSTYYADSVKGRFTISRDNAKNTVYLQMNSLKPEDTAVYYCARVNGAKQGGEYDYWGQGTQVTVSS | high polyreactivity
11 | QVQLVESGGGLVQAGGSLRLSCAASGRIFAWYAMGWYRQAPGKERELVAAISSGGSTNYADSVKGRFTISRDNAKNTVYLQMNSLKPEDTAVYYCNRYPVRDTGGYWGQGTQVTVSS | low polyreactivity
12 | QVQLVETGAGIVQAGGILRLSCAASGSIFQGNAIGWYRQAPGKERELVAAISGGTSTYYADSEKGRFTISRDNAKNTVYLEMNSLKPEDTAVYYCAARFYGHPYWYDYWGLGTQVTVSS | low polyreactivity
13 | QVQLVESGGGLVQAGGSLRLSCAASGSIISSYTMGWYRQAPGKERELVAVITSGDSTNYADSVKGRFTISRDNAKNTVYLEMNSLKPEDTAVYYCNADYVKVFKLQFDYWGQGTQVTVSS | low polyreactivity
14 | QVQLVESGGGLVQAGGSLRLSCAASGRIFRYYAMGWYRQAPGKERELVAAITGRGTSTYYADSVKGRFTISRDNAKNTVYVQMNSLKPEDTAVYYCAAGSVLRYWAGDYWGQGTQVTVSS | low polyreactivity
15 | QVQLVESGGGLVQAGGSLLLSCAASGRIFRSYAMGWYRQAPGKERELVAAISSGGSTKYADSVKGRFTISRDNAKNTVYLQMNSLKPVDTAVYYCAASRTRLGTSGTSYGAAYDYWGQGTQVTVSS | high polyreactivity
16 | QVQLVESGGGLVQAGGSLRLSCAASGITFPANAMGWYRQAPGKERELVAAISTSGGSTYYADSVKGRFTISRDNAKNTVYLQMNSLKPEDTAVYYCAATIYPYYSLYSHYYWGQCTQVTVSS | high polyreactivity
17 | QVQLVESGGGLVQAGGSLRLSCAASGIIFPYYAMGWYIQAPGKERELVASISSRGSSTYYADSVKGRFTISRDNAKNTVFLQMNSLKPEDTAVYYSAAQNFYRYYWGQGTQVTVSS | high polyreactivity
18 | QVQLVESGGGLVQAGGSLRLSCAASGRTFGVYAMGWYRQAPGKERELVAAITWSGGSTYYADSVKGRFTISRDNAKNTVYLQMNSLKPEDTAVYYCAADNWYKKQKRPSAYDYWGQGTQVTVSS | high polyreactivity
19 | QVQLVESGGGLVQAGGSLRLSCAATGGLFNVYVMGWYRQAPGKERELVAAITWRGGSTYYADSVKGRFTISRDNAKNTVYLQMNSLKPEDTAVYYCNADAPFQSSSDGYQVEYWGQGTQVTVSS | low polyreactivity
20 | QVQLVESGGGLVQAGGSLRLSCAASGRIFSEYAMGWYRQAPGKERELVAAITRRGGSTYYADSVKGRFTISRDNAKNTVYLQMNSLKPEDTAVYYCNALLTGGYQDSYPDDYWGQGTQVTVSS | high polyreactivity
21 | QVQLVESGGGLVQAGGSLRLSCAASGRTFRRYAMGWYRQAPGKERELVAVISRGGSTHYADSVKGRFTISRDNAKNTVYLQMNSLKPEDTAVYYCNAVVSVYTQDLDYWGQGTQVTVSS | high polyreactivity
22 | QVQLVESGGGLVQAGGSLRISCAASGSTFFRYAMGWYRQAPGKERELVAAIYKSGASTYYADSVKGRFTISRDNPKNSVYLQMNSLKPEDTGVYYCNADVKNSSAREWQYGYDYWGQGTQVTVSS | low polyreactivity

Row | Sequence | polyreactivity (PSR sort gate)
23 | QVQLVESGGGLVQAGGSLRLSCAASGITFNVYAMAWYRQAPGKERELVATITGSGGSTYYADSVKGRFTISRDNAKNTVYLQMNSQKPEDTAVYYCNAYYYFWGQGSQVTVSS | low polyreactivity
24 | QVQLVESAGGLVQAGGSLRLSCAASGSIFDAYAMGWYRQAPGKERELVAAIIARGGSTYYADSVKGRFTISRDNAKTTVYLQMISLKPEDTAVSYCNRLSRVRRYIYDYWGQGTQVTVSS | high polyreactivity
25 | QVQLVESGGGLVQAGGSLRLSCAASGYTFRYYAMGWYRQAPVKERELVARITGRAGSTYYADSVKGRFTISRDNAKNTVYLQMNSLKPEDTAVYYCAASIREGFYWGQGTQVTVSS | high polyreactivity
26 | QVQLVESGGGLVHAGGSLRLSCAASGSIFGRNAMGWYRQPPGKERELVARISSRGGSTYYADSVKGRFTISRDNAKNTVYLQMNSLKPEDTAVYYCNRDRTSQTNDYWGQGNQVTVSS | high polyreactivity
27 | QVQLVESGGGLVQAGGSLRLSCAASGFIFPLYTMGWYRQAPGKERELVAAITCSGGSTYYADSVKGGFTISRDNAKNTVYLQMNSLKPEDTAVYYCAKDYTYGMDWGQGTQVTVSS | low polyreactivity
28 | QVQLVESGGGLVQEGGSLRLICAASGRIFGDYGMGWYRQAPGKERELVAAITDRGGTTYYADSVKGRFTISRDNAKNTVYLQMNSLNPEDTAVYYCNARQSDIFDYDYWGQGTQVTVSS | low polyreactivity
29 | QVQLVESGGGLVQAGGSLRLSCAASGLTFGGYTMGWYRQAPGKERELVAAITSGGSTYYADSVKGRFTISRDNAKNTVYLQMNSLKPEDTAVYYCAARVRGWPVSKFGYWGQGTQVTVSS | high polyreactivity
30 | QVQLVESGGGLVHAGGSLRLSCAASGRTFGWYAMGWYIQAPGKERELVASITHRGGRTYYADSVKGRFTISRDNAKHTVYLQMNSLNPEDTAVYYCAAKTSTGMGYWGQCTQVTVSS | high polyreactivity
31 | QVQLVESGGGLVQAGGRLRLSCAASGSIFFDNTMGWYRQAPWKERELVASITYSGSTYADSVKGRFTISRDNAKNTVYLQMNSLKPEDTAVYYCNTESYWKVERFDYWGQGTHVTVSS | low polyreactivity
32 | QVQLVESGGGLVQAGGSLRLSCAASGRTLKLNAMGWYRQAPGKERELVAAISWRGGSTYYADSVKGRFTISRDNAKNTVYLQMNSLKPEDTAVYYCAAEATAGFWSYGTYDYWGQGTQVTVSS | high polyreactivity
33 | QVQLVESGGGLVQAGGSLRLSCAASGGIFSRYAMGWYRQAPGKEREFVAAISFSGASTYYTDSVKGRFTISRDTAKNTVYLQMNSLKPEDTAVYYCAAYWDAEGRRYTRLDYWGQGTQVTVSS | low polyreactivity
34 | QVQLVESGGGLVQAGGSLRLSCAASGRIIKFYAMGWYRQAPGKERELVARISRSGGRTYYADSVKGRFTISRDNAKITVYLQMNSLKPEDTAVYYCAADTQSVATYDYWGQGTQVTVSS | low polyreactivity
35 | QVQLVESGGGLVQAGGSLRLSCAASGSIVSAYVMGWYRQAPGKERELVAAITRSGGSTYYADSVKGRFTISRDNAKNTVYLQMNSLKPEDTAVYYCAADRRWFAYWFDYWGQGTQVTVSS | low polyreactivity
36 | QVQLVESGGGLVQAGGSLRLSCAAYGFIFTRYAMGWSRQAPGKERELVAAISSSGGSTSYADSVKGRFTISRDNAKNTVYFQMNSLKPEDTAVYYCAARGYRLARYRSYDYWGQGTQVTVSS | high polyreactivity
37 | QVQLVESGGGLVQAGGSLRLSCAASGSTIYSYTMGWYRQAPGKERELVAAISRGSSTYYADSVKGRFTISRDNAKNTVYLQMNSLKPEDTAVYYCAAQYRQIYYSYFEYYWGQGTQVTVSS | high polyreactivity
38 | QVQLEESGGGLVQAGVSLRLSCAASGSTFSLYAMGWYRPAPGKERELVAAISSGGRTNYADSVKGRFTISRDNAKKTVYLQMNSLKPEDTAVYYCAARIQWPTWSLYYYWGQGTQVTVSS | high polyreactivity
39 | QVQLVESGGGLVQAGGSLRLSCAASGFTFSYNTMGWYRQAPGKERELVAAISRSGGRTYYADSVKGRFTISRDNAKNTVYLQMNSLKPEDTAVYYCARYSVTGYGANSGPEMDYWGQGTQVTVSS | high polyreactivity
40 | QVQLVESGGGLVQAGGSLRLSCAASGSTFTNYAMGWYRQAPGKERELVAAISSSGGRTYYADSVKGRFTISRDNAKNTVYLQMNSLKPEDTAVYYCARVVRPSVGDYWGQGTQVTVSS | high polyreactivity
41 | QVQLVESGGGLVQAGGSLRLSCAASGRSLRYYAMGWYRQAPGKERELVAVITRDGSTYYADSVKGRFTIPRDNAKNTVYLQMNSLKPEDTAVSYCVYGLTYRSFYYWGQGTQVTVSS | high polyreactivity
42 | QVQLVESGGGLVQAGGSLRLSCAASGSIFVKYAMGWYRQAPGTERELVAAISGSGGSTYYADSVKGRFTISRDNAKNTVYLQMNSLKPEDTAVYYCAADDYFYSGRYGFEYWGQGTQVTVSS | low polyreactivity
43 | QVQLEETRGGLVQAGGSLRLSCAASGSIFPYYALGWYRQAAGKERELVASINQTDGTTYYADSVKGRFTISRDNAKNNVYLQMNSLKPDDTAFYYCPADTTLQAFIPYRPIGSYDSWGQGTQVTVSS | low polyreactivity
